Laboratory results from paper PMC10891134, “Bacteria employ lysine acetylation of transcriptional regulators to adapt gene expression to cellular metabolism” (Nature Communications, 2024).

Target: T1, RutR WT (UniProt P0ACU2 1-212)
T1 sequence: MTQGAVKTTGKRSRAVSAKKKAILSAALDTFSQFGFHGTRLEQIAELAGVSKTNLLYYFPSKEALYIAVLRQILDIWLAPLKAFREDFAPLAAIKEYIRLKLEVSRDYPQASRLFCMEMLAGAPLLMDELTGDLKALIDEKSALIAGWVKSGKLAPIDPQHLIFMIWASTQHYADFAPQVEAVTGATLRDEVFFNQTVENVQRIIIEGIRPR
Test: SPR; ITC: 100 mM potassium phosphate pH 6.4, 150 mM NaCl, 5 mM MgCl2, 2 mM b-ME, 20 or 25 C; SPR: 100 mM potassium phosphate pH 6.4, 300 mM NaCl, 0.05% Tween20, 25 C; EMSA: 20 mM Tris-HCl pH 7.5, 100 mM KCl, 2 mM DTT, 10% glycerol, 25 nM DNA, 30 C
Settings: protein: recombinant; tags: His6; chain copies: 2; blunt

B1: biotin-boxrutA (dsDNA)
DNA 1: GTTTTATGTGCAACTGTTTTGACCGTTTAGTCCACTTTTTACCAGATATTTTAG
DNA 2: CTAAAATATCTGGTAAAAAGTGGACTAAACGGTCAAAACAGTTGCACATAAAAC
**Q.** With B1 as the binder, how does the Kd read?
**A.** 4.27 ± 1.19 nM
